{
  "source": "paper PMC5892879",
  "about": "“Structures of the Mycobacterium tuberculosis GlpX protein (class II fructose-1,6-bisphosphatase): implications for the active oligomeric state, catalytic mechanism and citrate inhibition” (Acta Crystallographica. Section D, Structural Biology, 2018)",
  "assay_in_all_cases": "crystal structure",
  "key": {"[1]": {"target": "Mycobacterium tuberculosis class II fructose-1,6-bisphosphatase (GlpX protein), T84A variant (Mycobacterium tuberculosis) (UniProt P9WN21)"}, "[2]": {"target": "Mycobacterium tuberculosis class II fructose-1,6-bisphosphatase (GlpX protein), wild type (Mycobacterium tuberculosis) (UniProt P9WN21)"}, "[3]": {"target": "Mycobacterium tuberculosis class II fructose-1,6-bisphosphatase (GlpX protein), T84S variant (Mycobacterium tuberculosis) (UniProt P9WN21)"}},
  "data": [
    {"substance": "Mycobacterium tuberculosis class II fructose-1,6-bisphosphatase (GlpX protein), T84A variant (from UniProt P9WN21) (enzyme)", "values": [
      {"measurement": "stoichiometry N", "setting": "[1]", "value": 4}
    ]},
    {"substance": "Mycobacterium tuberculosis class II fructose-1,6-bisphosphatase (GlpX protein), wild type (from UniProt P9WN21 35-362) (enzyme)", "values": [
      {"measurement": "stoichiometry N", "setting": "[2]", "value": 4}
    ]},
    {"substance": "Mycobacterium tuberculosis class II fructose-1,6-bisphosphatase (GlpX protein), T84S variant (from UniProt P9WN21) (enzyme)", "values": [
      {"measurement": "stoichiometry N", "setting": "[3]", "value": 4}
    ]}
  ]
}
